# Experimental data as given in the DeepSol protein solubility set.
# Experiment: soluble on expression in E. coli; label from the status in PepcDB or PDB records
row,Sequence,soluble on expression in E. coli
1,MPSLLSSRIRNAEFAKKIVTDPAKLVPYFKNGDYVGWSGFTGVGYPKMIPNALARHVEENNLQGKLRFKLFVGASGGADTECKWAELNMIERRCPHQVGKPISKGINSGRIQFFDKHLSMFPQDLLYGYYTRNRESNTIDTAIIEATAITEDGGIVPGASVGASPELMQLAEKIIIEVNTAIPSFEGLHDIVEIPNPPHRTPININRVDDRIGKPYIKVDPKKVIGIVEADYGDITCANSPQDETSQAIAGHLVDFFHHEVSVGRLPKNLHPLQSGIGNIANAIIGGLAHSPFKDLEVWTEVLQDTFLPLFDSEKLRFATATSTRFSPQGFEKFYSNYDYYKERILLRPQVISNHPEIIRRLGCIAMNTPVEADIYAHANSTNVLGSRMLNGLGGSADFLRNAKLSIMHTPSVRPSKKDPTGITCIVPMATHVDQTEHDLDILVTEQGLADLRGLSPTERAREVIDKCAHPDYKPLLREYFDIAENYCLARGAGHEPHILANAFKMQLNLLEKGTMKIDHW,soluble
2,MPSLSEFLRKRRARQRRLQAVPSNNKKKSNNNNIMSSTSSGKSRRAASLSSINNFEHLASVEKAGWLNKWTNYLKGYRQRWFVLDSNATLSYYRNPSEVGHTCRGSINLQEARVHTDKTTSCIVISGQSQTFHVKPQNEMDRQQWTNSLEYMRHKAITRAESEEDEDAQMAKTDSNRSDALILANRQMSGKLCDLRTAANMMNKQGDELMRALNGTVETDKNSLAERADLLKMTTSAVLQAAEEFVELSEQSAKRLNKIVAVEQKEKALLQEQLEALAKQHSSLERAASKCARGAAPVSVYSDQEDDEFHDAEEDLAMPCSNSNGPPATAGVHLTPTKRHIGAGDPSSSTCSDSGAVVVVGAHKGGRQRRTTVPERPNLPINLWSIMKNCIGKELSKIPMPVNFSEPISVLQRVTEDLEYANLLETGAKLSTLEQMCYVAAYAASNYSTTCHRTNKPFNPLLGETFEFDRMDDLGWRSVTEQVSHHPPAAAHHAEGNGWTMYQDFTMTSRFRGKYLSVIPIGFTHVVFPATKSHFSYRKITTTVHNIIVGKLWIDNHGDMEITNHETNEKCLLKFVPYSYFSREQPRKVYGIVRDAEGIPKYVVQGTWDKSIDMLKVSSWNGNHEKPKLEVDETSLKRIWTANPLPKNAEKMHNFTKLAIELNEPEEGVAPTDSRLRPDQRLMENGEWDEANRKKLEIEEKQRVVRRRREAEKELAMKKGDKYEEYEPTWFVRVQDESNGALIHQFKGGYWEAKEQQNWEKCPDIF,not soluble
3,MPSRYTNILVPVDSSDAAQAAFTEAVNIAQRHQANLTALYVVDDSAYHTPALDPVLSELLDAEAAHAKDAMRQRQQFVATTSAPNLKTEISYGIPKHTIEDYAKQHPEIDLIVLGATGTNSPHRVAVGSTTSYVVDHAPCNVIVIR,not soluble
4,MPSTDFADIPAAKKMKIDTCVLRFAKLTENALEPVRGSAKAAGVDLRSAYDVVVPARGKAIVKTDLQVQVPEGSYGRVAPRSGLAVKNFIDVGAGVVDEDYRGNLGVVLFNHSDVDFEVKHGDRIAQFICERIFYPQLVMVDKLEDTERGEAGFGSTGVK,soluble
5,MPSTLSEELVGKYLAAQYQVWIDTSVVTLQIGCQSAPLAALLQATGNRSAVYVTACNPASEVATSQENQSAMARLYERLACYSNHIYRGTGIDPSGEWPAEESLLALGIDLSIAKKIGDEFGQNAIVWIDSAAIPHLVLLC,not soluble
6,MPSTNLTKRDWEKDHVYLVQFPRAGCIPSPSPYAFKVETFLRVADIPYTNINNEFKKMSARGQIPFIELNGRQHADSTIIIDNLTEHFHKSDLEDLSASDKAIARAFFALLEHHLCWVSLYSRGQDFGWLATDTGFGRLLTGIKGFAFKNFIVKSFTKKVRGRAAAQGMGTFSREEVLDQAKKDLDAISTQLGDKPYLFGSSIKTIDVTAFAHLAELIYTPQFSPEIRAYIDEKVPNVMEYVIRIKEKYWPDWEETTNTMNMATVWKKA,not soluble
7,MPSVFEAKGLPSLGPPVSNWGTNQPGTGVARNTRREKLGLWSAVALQQHFTATGGRGGLPLPLSSSALPSQEDRGTAAALGDNAGFSSGAVSSDLRSHLGPAPSLAGRLHKPTLAQRMGLVPGPTPPPSADDWRVITHRALQREHRHARDAGSPGANPSICPICQMSYSTNCDEGQVILSCSHVFHARCFRSFERYVRAQQRADALRIGEVSAPLACPVCRTQSYYKRIFYEGKAVAQRAAIVKVQAAVRGLLARRAYIKIKLQNNPEFRTRYVQERLARLSAAWQTFCAEQEQRRAGLQTALTVQQEMARAAFLSEEAWAEIWRKAVHGPSTSSEPGSSAAPSTAGASVQCPICLELIHCSQCPGTGAAASHAGGVRRLTGKDAVAAMWAAYEARKVAKRLPSVEPKAARASAGALVRSAVKGAAQRKTGNSLTPMPGAVASVRDGKVASSRAPEHRAGRQKGFAQPTAAAPWPEHANAFAALSSAPGVDAVGAHEAAVVLPQSGILLSCGHCFHAACIDCYERFHERRCLDMVEQDGGAVVAFPSRCPVCRSGYAKHPM,not soluble
8,MPTIKDYYLPKRPTLLFSLHPEPTQAIINGTKILEYRRRFFARPFQAFVYTTGDNGGIQLFLRCDQGLQLVPEQLALVGALLQHDAPTTTAAYFEGAKAGLALPITAFTTLPNIPLAQLRRQFENFVTPRSYVFLDQPDRQAQLDWLLTQPCESLTILDWRKRYAALATLLQKLEHHHHHH,not soluble
9,MPTKANTQRNWTIMVYLAGDNNLDSAGVVDLKEMKTVGTTDKIAVLAQFDRAGAKQATIRYCLKQGTPLAKDAVQSLGETNMGDPKVLEDFVTWGVANYPADHYLLVLWNHGAGWDDANLYQGDVFSGAAPPVSRKAQPVATRGATAGAKAIPLAQARAGIRRARRALFSTTVEAAIKQRGIAFDDQAQDFLDNIELKRVLTAIKKKLKRKIDIVGMDACLMSMAEVAYQMRDVADYSVGSEETEPGDGWPYDRILKALAAKPAMTPEELSKTIVAQYLASYKATENVTQSAMKLLALNPLATAVDGMAKALTGILGDTAARTALINARSQVQEYSRPYDDYCDLLDLCDLIGKGVASPAVKTACAKVKDAAAAAIVAAGYKGTGVDNSGGISIYFPKRKLSPLYKTLDFTKKTAWDEFLAAYLAGLGRLEHHHHHH,soluble
10,MPTNVTAEYLAAEEEYRNAKTIPEKIRALEKMYALVPKHKGTEKLRLQIKRRLAELRRELEKQRQQRKGGGYSLAVKKEGAAQIVLVGLPNVGKSELLRALTGVDVESADYPFTTTEPVPAMMNYKDVQIQLVEVPGLLEGAALGKGMGPQLLAVIRNADAIAIVIDLSEDPIKQMEILLREFERAGIKVNKRRPRVEIRKTPSGGIVINGAENIKGDLSEVMRMLREEKIHSAEITVKEPVTLEEFADALDDSLVWKKAIIIANKGDSPGSKENYHKLINKYGEKFKIVPVSAKKRINLEAVKEAIYDVAEIIRVFTKSPGEEPAYPPIALKRGATVMDVAERIHKDLVKNFRYARVWGKSVKFPGQRVGPDHVLEDGDIVEIHAK,soluble
11,MPTVRVKEGENPEYALRRFKRSCEKAGILTELRRREFYEKPTAERKRKQAAAVKRHLKKISRDVSSRRGVGHRRKKSTTLEHHHHHH,not soluble
12,MPTYKLSYFDVRAYAEPARILFHLAGVPFDDHRFPHGDGTWEKLKDKTPFGQVPVLYVDGFEIPQSAAIIRYLANKFGYAGKTPEEQAWADAIVDQFKDFMSLFREFKLAQKAGKSDVEIAKVASEVAIPARDSYFEIITNLLEKSKSGFLVGDGLTFADIVVVESLTNLEKVHFFDASEHPKLAALREKIYAIPAIKSWVDIRPDTIY,not soluble
13,MPVAHVALPVPLPRTFDYLLPEGMTVKAGCRVRVPFGKQQERIGIVVSVSDASELPLNELKAVVEVLDSEPVFTHSVWRLLLWAADYYHHPIGDVLFHALPILLRQGRPAANAPMWYWFATEQGQAVDLNSLKRSPKQQQALAALRQGKIWRDQVATLEFNDAALQALRKKGLCDLASETPEFSDWRTNYAVSGERLRLNTEQATAVGAIHSAADTFSAWLLAGVTGSGKTEVYLSVLENVLAQGKQALVMVPEIGLTPQTIARFRERFNAPVEVLHSGLNDSERLSAWLKAKNGEAAIVIGTRSALFTPFKNLGVIVIDEEHDSSYKQQEGWRYHARDLAVYRAHSEQIPIILGSATPALETLCNVQQKKYRLLRLTRRAGNARPAIQHVLDLKGQKVQAGLAPALITRMRQHLQADNQVILFLNRRGFAPALLCHDCGWIAECPRCDHYYTLHQAQHHLRCHHCDSQRPVPRQCPSCGSTHLVPVGLGTEQLEQTLAPLFPGVPISRIDRDTTSRKGALEQQLAEVHRGGARILIGTQMLAKGHHFPDVTLVALLDVDGALFSADFRSAERFAQLYTQVAGRAGRAGKQGEVVLQTHHPEHPLLQTLLYKGYDAFAEQALAERRMMQLPPWTSHVIVRAEDHNNQHAPLFLQQLRNLILSSPLADEKLWVLGPVPALAPKRGGRWRWQILLQHPSRVRLQHIINGTLALINTIPDSRKVKWVLDVDPIEG,soluble
14,MPVIKDAVCSLCGSLCDDITVTVEDNKITKIENACILGHSKFVGMFEHDRIETPMVRKDGELVPVSYEEAIEAAAKILVNSRRTLSYGWCSTSCEAVSGAIQLAEETGSIIDSTANVCHGPTALAAQEKGSPSASLGEIKNRADVIVFWGCNPVHAHPRHMSRYSSFSKGFFTEKGRKGRKMVVIDVRKTDTAKIADKYVEIEQGSDLLLVTALRSIVNGHEDVVPETVAGVPKAEVLELAETLKNAKFTCIFFGMGVTQSRSKYKNGDAVSSLISDLNQHTKAVMIGMRGHYNVTGFGQVATWETGFPMAIDFSRGYPYYNPGETGANDLLVREEPDAAIIAAADAGAHFPQKAVRHLARIPVIQIDPYANPTTEIADVVIPAAVVGIEAEGTAYRMDAISLRMKKLIDTEFKTDEEIVKDLTAKVREMKRGV,not soluble
15,MPVIPKSGRLAAVGVLGRIVDVLMRLSLLIRGAVPGGVAAAAATRYRDRIDTGTTATYYGRVVREGGYVVLQYWFFYAMNDWRSVYGGVNDHEADWEKVTVYLVEEENGEYRPVWVGASSHEYLGDDLRRRWDDPELHRDGNHPIIYVGAGSHSHQMLPGDYLIQVDPAFLRGVLRAWRRFTARFLPSSSRLRGIGVPFVDYARGDGVRVGPGGERTWTPVLIDDTTPWVRGYRGLWGRNTRDWFDGERAPSGPRYERLEHHHHHH,soluble
16,MPVKPASPRSHPGCPELTHERYCDAQAKAEDARYRKYQRDPKINRRYGSRWRKIRAAYVAAHPLCEDCLEAGRYTPVQEVHHVLPIEHGGTHNFDNLQSLCKPCHSRQSALDDDRWRQQPRVYTYLEHHHHHH,soluble
17,MPVKRSLKLDGLLEENSFDPSKITRKKSVITYSPTTGTCQMSLFASPTSSEEQKHRNGLSNEKRKKLNHPSLTESKESTTKDNDEFMMLLSKVEKLSEEIMEIMQNLSSIQALEGSRELENLIGISCASHFLKREMQKTKELMTKVNKQKLFEKSTGLPHKGQPQMSQPLLEHHHHHH,soluble
18,MPVRKAKAVWEGGLRQGKGVMELQSQAFQGPYSYPSRFEEGEGTNPEELIAAAHAGCFSMALAASLEREGFPPKRVSTEARVHLEVVDGKPTLTRIELLTEAEVPGISSEKFLEIAEAAKEGCPVSRALAGVKEVVLTARLV,soluble
